Measured values as given in patent US20220348674A1.

Tests used:
[1] = biological target: CD40 on Ramos-Blue cells (human)
[2] = biological target: cell surface human CD40 on HEK-CD40 cells (human) (UniProt P25942); experiment: flow cytometry on HEK-CD40 cells; mAb at 5 ug/ml
[3] = biological target: cell surface human CD40 on HEK-CD40 cells (human) (UniProt P25942); experiment: flow cytometry on HEK-CD40 cells; mAb at 12 ug/ml
[4] = biological target: cell surface human CD40 on HEK-CD40 cells (human) (UniProt P25942); experiment: flow cytometry on HEK-CD40 cells; mAb at 1.7 ug/ml
[5] = biological target: cell surface human CD40 on HEK-CD40 cells (human) (UniProt P25942); experiment: flow cytometry on HEK-CD40 cells; mAb at 0.02 ug/ml
[6] = biological target: cell surface human CD40 on HEK-CD40 cells (human) (UniProt P25942); experiment: flow cytometry on HEK-CD40 cells; mAb at 0.06 ug/ml
[7] = biological target: cell surface human CD40 on HEK-CD40 cells (human) (UniProt P25942); experiment: flow cytometry on HEK-CD40 cells; mAb at 0.56 ug/ml
[8] = biological target: cell surface human CD40 on HEK-CD40 cells (human) (UniProt P25942); experiment: flow cytometry on HEK-CD40 cells; mAb at 0.007 ug/ml
[9] = biological target: cell surface human CD40 on HEK-CD40 cells (human) (UniProt P25942); experiment: flow cytometry on HEK-CD40 cells; mAb at 0.78 ug/ml (so in the source)
[10] = biological target: cell surface human CD40 on HEK-CD40 cells (human) (UniProt P25942); experiment: flow cytometry, titration on HEK-CD40 cells, CD40 MFI, anti-human IgG secondary antibody

CP-870,893, IgG2 isotype fully human anti-CD40 mAb (antibody), sequence (VH): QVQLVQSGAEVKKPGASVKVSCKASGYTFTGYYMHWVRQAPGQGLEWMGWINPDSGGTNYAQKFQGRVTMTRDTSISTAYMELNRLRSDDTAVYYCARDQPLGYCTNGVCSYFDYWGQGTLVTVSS
CP-870,893, IgG2 isotype fully human anti-CD40 mAb (antibody), sequence (VL): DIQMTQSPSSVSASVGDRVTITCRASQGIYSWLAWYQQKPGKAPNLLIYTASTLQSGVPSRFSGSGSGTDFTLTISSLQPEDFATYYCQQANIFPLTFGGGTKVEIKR
cell surface human CD40 on HEK-CD40 cells (human), sequence (P25942 21-277): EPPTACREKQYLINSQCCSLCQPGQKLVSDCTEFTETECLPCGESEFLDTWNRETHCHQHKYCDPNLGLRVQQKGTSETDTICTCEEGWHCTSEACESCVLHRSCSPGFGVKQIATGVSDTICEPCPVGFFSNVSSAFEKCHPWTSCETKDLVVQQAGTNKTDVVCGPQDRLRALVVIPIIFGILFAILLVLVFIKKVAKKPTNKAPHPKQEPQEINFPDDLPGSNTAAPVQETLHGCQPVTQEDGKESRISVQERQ

Substance	EC50, w/o PDL1 (Ramos-Blue NFkB-SEAP reporter, OD630, HEK-control cells added) [1] [nM]	EC50, with PDL1 (Ramos-Blue NFkB-SEAP reporter, OD630, HEK-PDL1 cells added) [1] [nM]	MFI [2]	MFI [3]	MFI [4]	MFI [5]	MFI [6]	MFI [7]	MFI [8]	MFI [9]	EC50 [10] [µg/mL]
CP-870,893, IgG2 isotype fully human anti-CD40 mAb (antibody)	0.15	0.12	20900	23700	14100	635	1530	6790	271	3670	1.58
Human IgG1 isotype control (Bioxell, Catalog BE 0297) (antibody)	–	–	112	73.7	61.3	40.1	40.2	30.7	28.3	32.3	–
APX005m, humanized anti-CD40 mAb, IgG1 isotype with S267E mutation (antibody)	2.6	2.67	24500	24700	23300	2360	4590	18200	1150	9840	0.28
